Assay results taken from patent US20240409645A1 (DUALYX, published 2024).
Positions count from the first letter of the chain named. Like-named read-outs stand apart in the source and are kept apart here. Blank lines part the entries; values can stand above or below the binder they belong to.

What was measured:
human IL-2Rβ [1] = target: T1, human IL-2Rβ (human, UniProt P14784 27-240, limits assumed); experiment: SPR, P.E. off-rate
T1 construct: recombinant protein, coated or immobilised; also called hu IL-2R; IL-2R beta
T1 sequence: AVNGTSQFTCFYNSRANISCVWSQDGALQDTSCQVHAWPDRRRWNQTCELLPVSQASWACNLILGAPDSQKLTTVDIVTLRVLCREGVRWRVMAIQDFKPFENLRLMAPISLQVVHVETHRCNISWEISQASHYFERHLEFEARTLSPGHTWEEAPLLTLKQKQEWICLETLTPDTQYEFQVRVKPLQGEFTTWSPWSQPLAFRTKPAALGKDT
Description: SPR was performed to determine dissociation rates using Biacore 3000 instrument (GE Healthcare). Briefly, human and mouse IL-2R proteins were immobilized on carboxylmethyl dextran sensor chip (CM5) at approximately 2500 RUs using amine coupling in acetate buffer (GE Healthcare). The VHH-containing P.E. were loaded with a flow rate of 30 uL/min and the off-rates were measured over a 120s period.

human IL-2Rβ [2] = target: T1, human IL-2Rβ; experiment: P.E. ELISA, coated protein
Description: In a binding ELISA, human or mouse IL-2Rα, IL-2Rβ and IL-2Rγ proteins were coated directly on maxisorp microtiter plates overnight at 4° C. Free binding sites were blocked using 4% Marvel in PBS for 1 hour. Next, 1:5 dilution of P.E. in 1% Marvel/PBS were added to wells and incubated for 1 hour. […] Binding specificity was determined based on O.D. at 450 nm values compared to negative controls.

[3] = target: T2, human IL-2 receptor (IL-2Rα/IL-2Rβ/γc) (human, UniProt P01589 22-272; P14784 27-551; P31785 23-369); experiment: cell-based or functional assay
T2 sequence 1: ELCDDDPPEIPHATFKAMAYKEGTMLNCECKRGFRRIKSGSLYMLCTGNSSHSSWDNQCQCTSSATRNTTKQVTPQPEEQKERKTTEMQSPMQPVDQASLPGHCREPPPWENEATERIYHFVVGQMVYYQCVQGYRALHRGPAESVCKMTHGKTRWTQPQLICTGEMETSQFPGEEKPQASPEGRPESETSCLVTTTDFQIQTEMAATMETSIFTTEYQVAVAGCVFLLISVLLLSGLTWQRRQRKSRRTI
T2 sequence 2: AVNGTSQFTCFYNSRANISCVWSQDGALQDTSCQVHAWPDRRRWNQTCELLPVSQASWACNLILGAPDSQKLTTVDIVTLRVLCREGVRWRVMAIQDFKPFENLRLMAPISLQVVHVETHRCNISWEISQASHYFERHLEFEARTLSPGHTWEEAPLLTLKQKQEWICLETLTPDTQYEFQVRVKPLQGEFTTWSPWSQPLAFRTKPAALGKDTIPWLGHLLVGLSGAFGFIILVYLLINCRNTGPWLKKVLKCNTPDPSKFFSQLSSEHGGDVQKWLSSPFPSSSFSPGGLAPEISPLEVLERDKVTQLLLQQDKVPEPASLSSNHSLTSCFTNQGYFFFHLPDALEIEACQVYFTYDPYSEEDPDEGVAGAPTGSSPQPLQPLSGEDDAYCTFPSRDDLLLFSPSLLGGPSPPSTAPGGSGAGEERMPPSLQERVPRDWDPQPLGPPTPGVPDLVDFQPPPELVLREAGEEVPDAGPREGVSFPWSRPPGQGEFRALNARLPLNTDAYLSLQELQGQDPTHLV
T2 sequence 3: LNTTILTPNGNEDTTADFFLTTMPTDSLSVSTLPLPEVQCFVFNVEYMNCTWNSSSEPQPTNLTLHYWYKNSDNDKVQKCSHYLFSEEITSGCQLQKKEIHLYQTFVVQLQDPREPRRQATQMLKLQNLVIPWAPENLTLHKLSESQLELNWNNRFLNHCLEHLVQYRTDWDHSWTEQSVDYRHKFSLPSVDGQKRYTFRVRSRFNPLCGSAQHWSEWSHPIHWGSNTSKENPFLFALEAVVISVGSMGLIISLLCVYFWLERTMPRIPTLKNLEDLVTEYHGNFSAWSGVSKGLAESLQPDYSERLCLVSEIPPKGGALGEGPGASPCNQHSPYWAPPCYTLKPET

[4] = target: T2, human IL-2 receptor (IL-2Rα/IL-2Rβ/γc); experiment: cell-based or functional assay; remark: listed apart in the source

koff (human IL-2Rβ [1]): 0.000484 s⁻¹ | P.E. binding ELISA OD (human IL-2Rβ [2]): 2.55 OD450 nm
B1: FJ1427_P035MP02A06 (VHH)
VHH: QVQLQESGGGLVQAGGSLRLSCAASGGTFSSYAMGWFRQAPGKEREFVAATTRGGGRTMYAVSTEGRFTCSRDNDKNTVYLLMNSLKPKDTAVYYCAAMTSYYSGTYYPDSSDFDIWGQGTQVTVSS
notes: soluble VHH in periplasmic extract; also called clone nr

koff (human IL-2Rβ [1]): 0.000449 s⁻¹ | P.E. binding ELISA OD (human IL-2Rβ [2]): 0.375 OD450 nm
B2: FJ1427_P035MP02B04 (VHH)
VHH: B1 VHH with Q1E, Q5V, R19G, D75A, L82Q, V93I
notes: as for B1

EC50 (nM) pSTAT5, NK, human PBMCs [3]: 0.0936 nM | EC50 (nM) pSTAT5, Treg, human PBMCs [3]: 0.00189 nM | Fold Max signal (% pSTAT5+) Treg/NK [3]: 6 fold | Max signal (% pSTAT5+), NK [3]: 14 % pSTAT5+ | Max signal (% pSTAT5+), Treg [3]: 83 % pSTAT5+ | fold EC50 NK/Treg [3]: 49 fold | EC50 (nM) pSTAT5, NK, human PBMCs [4]: 0.00127 nM | EC50 (nM) pSTAT5, Treg, human PBMCs [4]: 0.425 pM | Fold Max signal (% pSTAT5+) Treg/NK [4]: 9 fold | Max signal (% pSTAT5+), NK [4]: 3.39 % pSTAT5+ | Max signal (% pSTAT5+), Treg [4]: 30 % pSTAT5+ | fold EC50 NK/Treg [4]: 3 fold
B3: DC00068 (other)
chain 1: EVQLVESGGGLVQTGGSLRLSCAASGGTFSRDAMAWFRQVPGKEREFVALISWSGATTNYADSVKGRFAISRDNGKNTVYLQMNRLKPADTAIYYCAADRRPMGSRSYFEPTEYDDWGQGTQVTVSSGGGGSGGGGSGGGGSQVQLVESGGGLVQPGGSLRLSCATSGFTFRNNFMSWVRQAPGKGLEWVSTISYGGESTTYAESVKGRFTISRDNAKNTLYLQMNNLKPEDTAVYYCAKATSYDSIRSGSRGQGTQVTVSSDKTHTCPPCPAPEAAGGPSVFLFPPKPKDTLMISRTPEVTCVVVDVSHEDPEVKFNWYVDGVEVHNAKTKPREEQYNSTYRVVSVLTVLHQDWLNGKEYKCKVSNKALGAPIEKTISKAKGQPREPQVYTLPPSRDELTKNQVSLTCLVKGFYPSDIAVEWESNGQPENNYKTTPPVLDSDGSFLLYSKLTVDKSRWQQGNVFSCSVMHEALHNHYTQKSLSLSPGK
chain 2: QVQLVESGGGLVQAGGSLTLSCAAPGRTFGTDVVGWFRQAPGKEREFVASISRSGDGIYYDDSVKGRFTISRNNAWNTVNLQMNSLKVEDTAVYYCAAGDGWSTYDYWGQGTQVTVSSGGGGSGGGGSGGGGSQVQLVESGGGLVQPGGSLRLSCATSGFTFRNNFMSWVRQAPGKGLEWVSTISYGGESTTYAESVKGRFTISRDNAKNTLYLQMNNLKPEDTAVYYCAKATSYDSIRSGSRGQGTQVTVSSGGGGSGGGGSGGGGSEVQLVESGGGLVQTGGSLRLSCAASGGTFSRDAMAWFRQVPGKEREFVALISWSGATTNYADSVKGRFAISRDNGKNTVYLQMNRLKPADTAIYYCAADRRPMGSRSYFEPTEYDDWGQGTQVTVSSGGGGSGGGGSGGGGSDKTHTCPPCPAPEAAGGPSVFLFPPKPKDTLMISRTPEVTCVVVDVSHEDPEVKFNWYVDGVEVHNAKTKPREEQYNSTYRVVSVLTVLHQDWLNGKEYKCKVSNKALGAPIEKTISKAKGQPREPQVYTLPPSRDELTKNQVSLTCLVKGFYPSDIAVEWESNGQPENNYKTTPPVLDSDGSFFLYSRLTVDKSRWQQGNVFSCSVMHEALHNHYTQKSLSLSPGK

koff (human IL-2Rβ [1]): 0.000169 s⁻¹ | P.E. binding ELISA OD (human IL-2Rβ [2]): 0.242 OD450 nm
B4: FJ1427_P035MP02E03 (VHH)
VHH: EVQLVESGGGSVQTGGSLRLSCVVSGSHFISDVMGWYRQVPGKQRELVADMADGGSVKYGDSVKGRFTILRDSVKNTVTLQMSSLNPEDTGVYYCKAGLWITGRHFDYWGQGTQVTVTS
notes: as for B1
